Assay results: patent US20130281659

B1: AMSH (protein)
chain: MSDHGDVSLPPEDRVRALSQLGSAVEVNEDIPPRRYFRSGVEIIRMASIYSEEGNIEHAFILYNKYITLFIEKLPKHRDYKSAVIPEKKDTVKKLKEIAFPKAEELKAELLKRYTKEYTEYNEEKKKEAEELARNMAIQQELEKEKQRVAQQKQQQLEQEQFHAFEEMIRNQELEKERLKIVQEFGKVDPGLGGPLVPDLEKPSLDVFPTLTVSSIQPSDCHTTVRPAKPPVVDRSLKPGALSNSESIPTIDGLRHVVVPGRLCPQFLQLASANTARGVETCGILCGKLMRNEFTITHVLIPKQSAGSDYCNTENEEELFLIQDQQGLITLGWIHTHPTQTAFLSSVDLHTHCSYQMMLPESVAIVCSPKFQETGFFKLTDHGLEEISSCRQKGFHPHSKDPPLFCSCSHVTVVDRAVTITDLR
B2: A20-OTU (protein)
chain: LVALKTNGDGNCLMHATSQYMWGVQDTDLVLRKALFSTLKETDTRNFKFRWQLESLKSQEFVETGLCYDTRNWNDEWDNLIKMASTDTPMARSGLQYNSLEEIHIFVLCNILRRPIIVISDKMLRSLESGSNFAPLKVGGIYLPLHWPAQECYRYPIVLGYDSHHFVPLVTL
B3: IsoT (protein)
chain: MAELSEEALLSVLPTIRVPKAGDRVHKDECAFSFDTPESEGGLYICMNTFLGFGKQYVERHFNKTGQRVYLHLRRTRRPKEEDPATGTGDPPRKKPTRLAIGVEGGFDLSEEKFELDEDVKIVILPDYLEIARDGLGGLPDIVRDRVTSAVEALLSADSASRKQEVQAWDGEVRQVSKHAFSLKQLDNPARIPPCGWKCSKCDMRENLWLNLTDGSILCGRRYFDGSGGNNHAVEHYRETGYPLAVKLGTITPDGADVYSYDEDDMVLDPSLAEHLSHFGIDMLKMQKTDKTMTELEIDMNQRIGEWELIQESGVPLKPLFGPGYTGIRNLGNSCYLNSVVQVLFSIPDFQRKYVDKLEKIFQNAPTDPTQDFSTQVAKLGHGLLSGEYSKPVPESGDGERVPEQKEVQDGIAPRMFKALIGKGHPEFSTNRQQDAQEFFLHLINMVERNCRSSENPNEVFRFLVEEKIKCLATEKVKYTQRVDYIMQLPVPMDAALNKEELLEYEEKKRQAEEEKMALPELVRAQVPFSSCLEAYGAPEQVDDFWSTALQAKSVAVKTTRFASFPDYLVIQIKKFTFGLDWVPKKLDVSIEMPEELDISQLRGTGLQPGEEELPDIAPPLVTPDEPKGSLGFYGNEDEDSFCSPHFSSPTSPMLDESVIIQLVEMGFPMDACRKAVYYTGNSGAEAAMNWVMSHMDDPDFANPLILPGSSGPGSTSAAADPPPEDCVTTIVSMGFSRDQALKALRATNNSLERAVDWIFSHIDDLDAEAAMDISEGRSAADSISESVPVGPKVRDGPGKYQLFAFISHMGTSTMCGHYVCHIKKEGRWVIYNDQKVCASEKPPKDLGYIYFYQRVAS

How the values were obtained:
[1] = target: K48C, K63C-linked branched Ub trimer
[2] = target: K11C, K48C-linked branched Ub trimer
[3] = target: K6C, K48C-linked branched Ub trimer

Protein | DUB-catalyzed hydrolysis of Ub trimer, SDS-PAGE and western blot [1] | DUB-catalyzed hydrolysis of Ub trimer, SDS-PAGE and western blot [2] | DUB-catalyzed hydrolysis of Ub trimer, SDS-PAGE and western blot [3]
B1 | the presence of a Ub appendage at position 48 does not influence cleavage of the K63C-linkage as indicated by the formation of Ub2 and Ub upon hydrolysis of the K48C, K63C-linked trimer |  | 
B2 | A20-OTU cleaved the K48C-linkage in K11C, K48C and K48C, K63C-linked trimers | A20-OTU cleaved the K48C-linkage in K11C, K48C and K48C, K63C-linked trimers | the same linkage remained intact in the K6C, K48C-linked trimer
B3 | IsoT efficiently processed all three trimers as evidenced by Western blot analysis | IsoT efficiently processed all three trimers as evidenced by Western blot analysis | IsoT efficiently processed all three trimers as evidenced by Western blot analysis
